From patent publication US20170319648A1 (BAO KANG BIOMEDICAL HEALTHCARE, published 2017) come the findings set out here.

Positions of bridges follow the written chain, without caps; N, C: chain ends. Non-standard residues stand in square brackets, D forms with d. No end group written: not given here. hCys = N[C@@H](CCS)C(=O)O

The target in this assay is T1, TEAD.
T1 chain: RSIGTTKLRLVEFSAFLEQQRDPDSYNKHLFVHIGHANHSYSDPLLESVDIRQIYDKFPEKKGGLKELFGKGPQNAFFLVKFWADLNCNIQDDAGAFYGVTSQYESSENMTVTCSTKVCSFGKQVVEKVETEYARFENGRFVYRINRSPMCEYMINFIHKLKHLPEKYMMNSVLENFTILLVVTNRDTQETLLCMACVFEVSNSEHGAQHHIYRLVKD
The experiment in a line: IC50 for TEAD binding; method not named in the example (TR-FRET test is the filing's screening method).

As for VPMCLRKLPESFCHPPE (disulfide 4-13) [polypeptide of SEQ ID NO.: 8 (VPMCLRKLPESFCHPPE)], the IC50 amounted to 28 nM.

As for VPM[hCys]LRKLPCSFCDPPE (disulfide 4-13) [polypeptide of SEQ ID NO.: 9 (VPM(Hcy)LRKLPCSFCDPPE)], the IC50 is 25 nM.

A word on the IC50: it is the concentration that inhibits the measured activity by half. A higher IC50 goes with weaker potency in that assay.
